Assay results: patent US12692514B2, “Living cells engineered with polyphenol-functionalized biologically active nanocomplexes” (PRESIDENT AND FELLOWS OF HARVARD COLLEGE, priority 2020, dated 2026)

Assay: In vivo biodistribution after intravenous administration (IVIS)
Parameters: species or system C57BL/6 mice
Conditions: 5 min (0.08 hour) after administration
Procedure: (FIG. 3A) IVIS images of excised mouse lungs 5 min (0.08 hours) after the administration of OVA protein only and OVA/Erythrocyteplex. […] OVA was used for the fluorescence signal. (FIG. 3B) Biodistribution of OVA only and OVA/Erythrocyteplex 5 min after intravenous (IV) administration. (FIG. 3C) Biodistribution of OVA only and OVA/Erythrocyteplex 6 hours after IV administration. (FIG. 3D) Biodistribution of OVA only and OVA/Erythrocyteplex 24 hours after IV administration. (FIG. 3E) Lung to liver ratio of OVA delivered by the control counterpart and OVA/Erythrocyteplex throughout the entire measurement window. (FIG. 3F) Remaining OVA delivered by Erythrocyteplex through the time after 24 hours post-injection. […] Variation is represented by SE (error bars) from three independent replicates for all data points. (FIG. 3G) Confocal florescence microscopy images of lung vascular capillary sections 5 min. […]
Female 50-56 days old C57BL/6 mice (n=3-6 per group) were administered intravenously using a with OVA-Erythrocyteplex coated with 30 ug/mL OVA. […] Each organ was placed in a 6 well tissue culture plate (Falcon); blood (50 μL) was placed in a heparinized microcapillary tube (Drummond Scientific) and far red fluorescence signal for each organ was imaged using Perkin Elmer IVIS small animal imaging system. Far red signals were quantified using LivingImage software.

B1: free OVA: free ovalbumin protein, control counterpart (protein, UniProt P01012 2-386, looked up)
Ovalbumin: GSIGAASMEFCFDVFKELKVHHANENIFYCPIAIMSALAMVYLGAKDSTRTQINKVVRFDKLPGFGDSIEAQCGTSVNVHSSLRDILNQITKPNDVYSFSLASRLYAEERYPILPEYLQCVKELYRGGLEPINFQTAADQARELINSWVESQTNGIIRNVLQPSSVDSQTAMVLVNAIVFKGLWEKAFKDEDTQAMPFRVTEQESKPVQMMYQIGLFRVASMASEKMKILELPFASGTMSMLVLLPDEVSGLEQLESIINFEKLTEWTSSNVMEERKIKVYLPRMKMEEKYNLTSVLMAMGITDVFSSSANLSGISSAESLKISQAVHAAHAEINEAGREVVGSAEAGVDAASVSEEFRADHPFLFCIKHIATNAVLFFGRCVSP
signal in the liver: strong signal intensities in the liver
